The target in assay [1] is T1, Human CD137 shuffle 1 (amino acids 162-186 replaced by wild boar CD137) (human, amino acids 162-186 from wild …, UniProt Q07011 24-255).
T1 construct: also called shuffle construct 1
T1 chain: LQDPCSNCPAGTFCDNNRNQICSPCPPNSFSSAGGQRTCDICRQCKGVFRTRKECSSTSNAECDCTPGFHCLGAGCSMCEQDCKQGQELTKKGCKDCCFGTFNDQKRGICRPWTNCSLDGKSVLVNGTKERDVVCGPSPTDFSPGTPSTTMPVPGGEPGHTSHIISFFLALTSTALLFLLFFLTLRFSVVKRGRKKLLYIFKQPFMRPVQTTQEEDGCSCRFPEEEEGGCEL
The assay is described as follows: flow cytometry on transfected HEK293T-17 cells, 1 µg/mL antibody.

In assay [2] the target is T2, Human CD137 shuffle 2 (amino acids 139-161 replaced by wild boar CD137) (human, amino acids 139-161 from wild …, UniProt Q07011 24-255).
T2 construct: also called shuffle construct 2
T2 chain: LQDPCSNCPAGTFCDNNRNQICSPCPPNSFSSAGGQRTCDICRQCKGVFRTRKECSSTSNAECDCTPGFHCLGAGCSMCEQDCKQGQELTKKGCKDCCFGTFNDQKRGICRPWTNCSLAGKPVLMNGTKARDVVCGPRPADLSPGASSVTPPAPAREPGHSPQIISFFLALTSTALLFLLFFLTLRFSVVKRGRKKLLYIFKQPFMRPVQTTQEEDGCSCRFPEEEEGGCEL
Described as above.

In assay [3] the target is T3, Human CD137 shuffle 5 (amino acids 48-88 replaced by African elephant CD137) (human, amino acids 48-88 from African …, UniProt Q07011 24-255).
T3 construct: also called shuffle construct 5
T3 chain: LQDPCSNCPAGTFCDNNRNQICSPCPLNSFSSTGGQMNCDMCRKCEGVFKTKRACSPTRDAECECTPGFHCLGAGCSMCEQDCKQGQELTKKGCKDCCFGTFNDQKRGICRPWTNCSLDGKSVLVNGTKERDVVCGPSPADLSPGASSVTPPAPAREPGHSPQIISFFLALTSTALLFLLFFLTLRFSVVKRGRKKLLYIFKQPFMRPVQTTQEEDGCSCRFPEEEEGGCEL
Described as above.

Assay [4] concerns the target T4, Human CD137 shuffle 3 (amino acids 115-138 replaced by wild boar CD137) (human, amino acids 115-138 from wild …, UniProt Q07011 24-255).
T4 construct: also called shuffle construct 3
T4 chain: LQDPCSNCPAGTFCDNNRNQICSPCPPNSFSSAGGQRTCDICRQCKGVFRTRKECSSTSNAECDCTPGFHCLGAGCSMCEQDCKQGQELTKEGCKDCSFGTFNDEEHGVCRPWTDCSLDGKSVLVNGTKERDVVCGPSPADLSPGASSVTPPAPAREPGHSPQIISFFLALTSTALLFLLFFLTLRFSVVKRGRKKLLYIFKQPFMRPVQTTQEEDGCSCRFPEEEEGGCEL
The assay is described as above.

Assay [5] concerns the target T5, Human CD137 shuffle 4 (amino acids 89-114 replaced by wild boar CD137) (human, amino acids 89-114 from wild boar, UniProt Q07011 24-255).
T5 construct: also called shuffle construct 4
T5 chain: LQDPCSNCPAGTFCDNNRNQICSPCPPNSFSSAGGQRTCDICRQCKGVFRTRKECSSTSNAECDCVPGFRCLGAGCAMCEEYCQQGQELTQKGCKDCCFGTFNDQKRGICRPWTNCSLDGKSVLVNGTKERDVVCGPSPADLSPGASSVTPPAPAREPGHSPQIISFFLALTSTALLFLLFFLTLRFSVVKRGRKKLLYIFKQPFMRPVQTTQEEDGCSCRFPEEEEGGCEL
Described as above.

Assay [6] deals with T6, Human CD137 shuffle 6 (amino acids 24-47 replaced by wild boar CD137) (human, amino acids 24-47 from wild boar, UniProt Q07011 26-200).
T6 construct: also called shuffle construct 6
T6 chain: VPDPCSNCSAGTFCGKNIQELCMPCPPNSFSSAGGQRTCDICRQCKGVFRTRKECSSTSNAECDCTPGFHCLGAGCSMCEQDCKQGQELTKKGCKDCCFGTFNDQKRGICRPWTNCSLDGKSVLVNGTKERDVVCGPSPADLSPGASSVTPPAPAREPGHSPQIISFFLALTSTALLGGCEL
In words: flow cytometry on transfected HEK293T-17 cells. How it is done: 3×10⁶ HEK293T-17 cells were seeded in T75 culture flasks (Greiner Bio-One, cat. no. 658175) in 20 mL RPMI 1640 GlutaMAX medium containing 10% FCS (Biochrom, cat. no. S 0115). After O/N incubation, cells were transiently […] with expression vectors encoding the shuffle constructs or the wild boar, African elephant or human CD137 downstream of a constitutively active human elongation factor-1 alpha (EF-1 alpha) promotor using TransIT®-LT1 Transfection Reagent, Mirus Bio (VWR International, cat. no. 731-0029), according to the manufacturer's instructions. The next day, cells were harvested using 1.5 mL Accutase (Sigma Aldrich, cat. no. A6964) (incubation at 37° C. for 5 min.) and flow cytometry was performed, essentially as described in Example 4, to measure surface expression of the shuffle constructs and the human, African elephant and wild boar CD137 and to measure binding of the antibody clones to the different shuffle constructs. To measure cell surface expression of the constructs, transduced cells were incubated with 1 μg/mL goat polyclonal anti-human CD137 (R&D Systems, cat. no. AF838) in FACS buffer (D-PBS supplemented with 5 mM EDTA [Sigma Aldrich, cat. no. 03690] and 5% (v/v) fetal bovine serum [FBS, Biochrom, cat. no. S 0115]) (4° C., 20 min.), followed by incubation with APC-labeled anti-goat IgG (H+L) (R&D Systems, cat. no. F0108) (4° C., 20 min.). Binding of the different CD137 antibody clones to cells expressing the shuffle constructs was measured by incubation of the transduced cells with 1 μg/mL of the antibody clones, followed by APC-labeled AffiniPure F(ab′)2 Fragment (1:50 final dilution; Jackson, cat. no. 109-136-127).
On the technique in general: Flow cytometry measures light scatter and fluorescence of single cells or particles in a stream.

A further assay has as its target T7, Human CD137 (TNR9_Human) (human, UniProt Q07011 24-255).
T7 construct: Full-length human CD137 expressed on HEK293T-17, NF-kB/293/GFP-Luc or K562 cells, or native on T cells; also called hCD137 wt; 4-1BB
The assay is described as follows: flow cytometry, HEK293-T17 cells transiently transfected with human CD137, antibody at 1 µg/mL, APC-labeled F(ab')2 secondary.

T7 sequence (Q07011 24-255): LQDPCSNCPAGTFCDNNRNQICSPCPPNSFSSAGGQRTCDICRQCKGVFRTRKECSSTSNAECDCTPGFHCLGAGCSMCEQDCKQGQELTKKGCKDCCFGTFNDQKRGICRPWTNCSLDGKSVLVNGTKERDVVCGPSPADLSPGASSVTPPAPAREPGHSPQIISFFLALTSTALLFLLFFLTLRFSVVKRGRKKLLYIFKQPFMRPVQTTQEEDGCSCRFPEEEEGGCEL

B1: CD137 antibody clone 005 (rabbit) (antibody, human IgG1, kappa, V domains shown)
VH: QSVEESGGRLVTPGTPLTLTCTASGFTISDFHVTWVRQAPGKGLEWIGTIITSASTTAYATWARGRFTISKSSTTVNLKIVSPTTEDTATYFCARSTYTDTSGYYFDFWGQGTLVTVSS
VL: AQVLTQTASPVSAAVGGTVIINCQSSQSIYNGNRLSWYQQKPGQPPKLLIYSASTLASGVSSRFKGSGSGTQFTLAISDVQSDDAATYYCLGSYDCDSADCFAFGGGTEVVVER
notes: also called Clone 5; CD137 clone 005
With B1, the binding result in assay [1] is “binds”; in assay [2], “binds”; in assay [3], “binds”; in assay [4] it was “binds”; in assay [5] it was “binds”; in assay [6], “no binding (tested: 1 µg/mL)”. Further, the binding result with Human CD137 (TNR9_Human) is recorded as “binds”.

Source of the values: patent publication US20210317225A1 (Genmab, published 2021).
